The chains are these.
T1: MSMEG_3765 (TetR3765) (Mycobacterium smegmatis mc2155) (UniProt A0QYS0)
T1 sequence: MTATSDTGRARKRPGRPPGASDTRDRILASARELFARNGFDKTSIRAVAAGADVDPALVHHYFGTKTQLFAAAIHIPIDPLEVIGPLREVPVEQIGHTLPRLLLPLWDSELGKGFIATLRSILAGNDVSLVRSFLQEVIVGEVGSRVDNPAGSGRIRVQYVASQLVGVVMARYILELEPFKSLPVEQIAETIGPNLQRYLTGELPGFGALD

T2: MSMEG_3765 (TetR3765) (Mycobacterium smegmatis mc2155, UniProt A0QYS0 1-211)
T2 sequence: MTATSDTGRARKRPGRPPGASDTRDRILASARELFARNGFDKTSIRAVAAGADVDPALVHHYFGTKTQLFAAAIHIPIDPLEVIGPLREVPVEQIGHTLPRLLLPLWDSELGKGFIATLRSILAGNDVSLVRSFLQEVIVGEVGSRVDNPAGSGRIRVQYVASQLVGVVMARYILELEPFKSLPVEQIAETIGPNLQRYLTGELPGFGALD

B1: fragment d 36 bp TetR motif (dsDNA)
DNA 1: AATTCATTGCATGATGACTTCATCGCGCGATGAATT
DNA 2: AATTCATCGCGCGATGAAGTCATCATGCAATGAATT

One data set has as its target T1, MSMEG_3765 (TetR3765) (Mycobacterium smegmatis mc2155). Nature of the data set: EMSA. The note with it: 40 mM HEPES pH 8.0, 150 mM NaCl, 20 mM MgCl2, 10% glycerol, 37 C, 20 min; 8% native PAGE, SYBR Safe.
Turning to “CCGGATCCGACCTCGACCACCATCGCACGCACACCCCGTCCGGCAATAGTTGCGCCGAGCAGCCGATGCGCGGCCGCGACCGGGTCGATCGCCAGTTCCTCAGCGTTCATCAGAGACGATTGTGCACCGGCCCTTGACAAACCCGCACGACTGGCGGATATTCATCACATGATGATTTCATCAAGTGATGAATTACTTCGCGACGGTGGGGCCCG (double strand) [Rv1687c upstream fragment 200 bp]”, the binding entry is on record as “binds”.
Take “CGGGATCCGATCCTGCGGGGCGCCGACGACCACACGCTGTCGCTGATCACCGAGTACGTCGACGTCGCACGGTTGCGGGCCGACATTATCGGCCTGCTGGAGTCCGCCGCCTGAGCCAGGCGTCGCCGACGCCGAAATGTGTCGACGCATCGTCTTCCCACCGGACGACGGCAGGCCTAGAATTCATTGC (double strand) [fragment b 182 bp]”: the binding result is “no binding”.
Take “CGGGATCCGATCCTGCGGGGCGCCGACGACCACACGCTGTCGCTGATCACCGAGTACGTCGACGTCGCACGGTTGCGGGCCGACATTATCGGCCTGCTGGAGTCCGCCGCCTGAGCCAGGCGTCGCCGACGCCGAAATGTGTCGACGCATCGTCTTCCCACCGGACGACGGCAGGCCTAGAATTCATTGCATGATGACTTCATCGCGCGATGAATTGTCAGCGACGGGGCCCG (double strand) [MSMEG_3762 upstream fragment 218 bp]”: the binding entry was “binds”.
Consider “CGGGCCCGATCCACGCTGGCCATGGCATCGGTGGTCGGTTCGTCGCTCATGTCGTCAAGTTAGCTTGACGACATGAGCGGCGTCAAGAAAACTTGACACAAAAGGAACAGGCACAATCGCATCGATGAGCGTCGACCTGCTGACCGGTGATCCGATCGCCGCGGCACGTCGGCTGATCGGCGCCCACCTCGTCGGGCGGGACGTCACCGCCACGATCGTCGAGGTCGAGGCCTACGGCGGACCGCCGGACGGCCCGTGGCCGGACGCGGCGTCGCATTCGTTCCGGATCCCG (double strand) [MSMEG_3760 upstream fragment (from GFP assay) 277 bp]”, for which the binding result is reported as “no binding”.
With “CTGCTGGAGTCCGCCGCCTGAGCCAGGCGTCGCCGACGCCGAAATGTGTCGACGCATCGTCTTCCCACCGGACGACGGCAGGCCTAGAATTCATTGC (double strand) [fragment c 97 bp]”, the binding entry was “no binding”.
Consider “CTGCTGGAGTCCGCCGCCTGAGCCAGGCGTCGCCGACGCCGAAATGTGTCGACGCATCGTCTTCCCACCGGACGACGGCAGGCCTAGAATTCATTGCATGATGACTTCATCGCGCGATGAATTGTCAGCGACGGGGCCCG (double strand) [fragment a 133 bp]”, for which the binding result was “binds”.
As to “GACGCTCATCGATGCGATTGTGCCTGTTCCTTTTGTGTCAAGTTTTCTTGACGCCGCTCATGTCGTCAAGCTAACTTGACGACATGAGCGACGAACCGACCACCGATGCCATGGCCAGCGTGGATCGGGCCCG (double strand) [MSMEG_3760 upstream fragment 127 bp (negative control)]”, the binding entry is recorded as “no binding”.

The target in a further data set is T2, MSMEG_3765 (TetR3765). Nature of the data set: EMSA; 1.5-20 pmol protein; 40 mM HEPES pH 8.0, 150 mM NaCl, 20 mM MgCl2, 10% glycerol, 37 C, 20 min; 8% native PAGE, SYBR Safe. Conditions: protein: recombinant; tags: C-terminal His (pET-22b(+), NdeI-XhoI); chain copies: 2. In general terms: A gel shift assay detects complexes by their altered migration in electrophoresis.
In the case of B1, the binding result is given as “binds”.

The values are drawn from paper PMC5660060.
